Data taken from patent US7439329B2, “GEF-H1b: biomarkers, complexes assays and therapeutic uses thereof” (Sugen, Inc., priority 2002, dated 2008).

What was measured:
[1] = biological target: T1, PAK4 (Homo sapiens, UniProt O96013); assay: In vitro kinase assay, phosphorylation of substrates by PAK4; type: biochemical; set-up: Glutathione-s-transferase (GST) fused PAK4 (residues 291-591); GST (N); made in house; conditions: autoradiography
Method: Next examined, was whether GEF-H1 is a PAK4 substrate. In vitro kinase assays were performed using a GEF-H1 GST-fusion protein, a Maguin-2-like GST-fusion protein and GST control protein as substrates for phosphorylation by PAK4.
The cDNA encoding GEF-H1S obtained in the phage display screen was excised and subcloned into pGEX-4T expression vector to allow for recombinant production of protein for in vitro experiments. The GEF-H1S protein was then mixed with PAK4 kinase and incubated such that PAK4 phosphorylated the GEF-H1S. A portion of this kinase reaction was separated by SDS-PAGE and autoradiographed to visualize the extent of phosphorylation. […] SDS-PAGE is a universal protein separation and visualization technique that is described in Laemmli, Nature, 227(259):680-5, 1970.
From the phosphorylation experiments described above, two peptides of GEF-H1S were identified as being targets for PAK4-induced phosphorylation. The GEF-H1S target residues were identified by aligning the PAK4 activation loop peptide with the GEF-H1S polypeptide sequence amino acids 762 to 921.
The following phosphoisomers (phosphate-modified GEF-H1S peptides) were used in PAK4 kinase assays to determine which residues were specifically phosphorylated. Because certain residues were modified to comprise a phosphate moiety (the underlined residues below), they could not be phosphorylated by PAK4. […]
Target sequence in this assay (O96013 291-591): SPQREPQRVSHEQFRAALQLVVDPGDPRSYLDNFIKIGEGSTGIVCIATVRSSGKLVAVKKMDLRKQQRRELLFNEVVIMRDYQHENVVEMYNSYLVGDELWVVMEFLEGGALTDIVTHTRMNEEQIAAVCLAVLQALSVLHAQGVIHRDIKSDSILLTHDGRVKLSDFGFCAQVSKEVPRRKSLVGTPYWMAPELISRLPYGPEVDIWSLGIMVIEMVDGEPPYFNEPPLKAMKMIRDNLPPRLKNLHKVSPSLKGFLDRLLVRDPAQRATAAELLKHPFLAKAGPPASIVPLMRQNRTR

[2] = biological target: T1, PAK4; assay: GST pull-down binding assay with 293T lysates expressing exogenous PAK4; set-up: expressed in transfected cells; host or cells: 293T; conditions: GST-fusion protein on glutathione beads
Method: FIG. 1: (SEQ ID NOs 32-34 respectively in order of appearance) Direct binding of GEF-H1 to PAK4. Lysates were prepared from 293T cells over expressing (a) myc tagged PAK4 alleles or subdomains and incubated with GST, GST-GEF-H1 (787-921) and GST-Maguin-like bound to Glutathione beads (1,2,3,4 bead designation) or (b) GFP-GEF-H1 and incubated with PAK4 biotinylated peptides (291-355) and (276-324) linked to streptavidin beads. An equivalent amount of beads and excess lysates (500 ug) were used. Eluates of beads and total lysates were analysed by SDS-PAGE and immunoblotted with myc or GEF-H1 antiserum; (c) represents a PAK4 gene schematic outlining the regions of PAK4 used to identify the GEF-H1 interaction domain (GID). d, alignment of the GID defined by the minimal binding region of PAK4 with PAK5 and PAK6.
To confirm the in vitro interaction of GEF-H1S with PAK4, bacterially expressed GST-fusion proteins were generated with the identical sequences isolated by phage display, encoding either amino acids 763-921 of GEF-H1S or amino acids 385-555 from the Maguin-2-like protein. These fusion proteins were bound to glutathione beads and utilized in binding assays with 293T lysates expressing exogenous PAK4. […]
Target sequence in this assay (O96013 whole entry, the tested form may be a part): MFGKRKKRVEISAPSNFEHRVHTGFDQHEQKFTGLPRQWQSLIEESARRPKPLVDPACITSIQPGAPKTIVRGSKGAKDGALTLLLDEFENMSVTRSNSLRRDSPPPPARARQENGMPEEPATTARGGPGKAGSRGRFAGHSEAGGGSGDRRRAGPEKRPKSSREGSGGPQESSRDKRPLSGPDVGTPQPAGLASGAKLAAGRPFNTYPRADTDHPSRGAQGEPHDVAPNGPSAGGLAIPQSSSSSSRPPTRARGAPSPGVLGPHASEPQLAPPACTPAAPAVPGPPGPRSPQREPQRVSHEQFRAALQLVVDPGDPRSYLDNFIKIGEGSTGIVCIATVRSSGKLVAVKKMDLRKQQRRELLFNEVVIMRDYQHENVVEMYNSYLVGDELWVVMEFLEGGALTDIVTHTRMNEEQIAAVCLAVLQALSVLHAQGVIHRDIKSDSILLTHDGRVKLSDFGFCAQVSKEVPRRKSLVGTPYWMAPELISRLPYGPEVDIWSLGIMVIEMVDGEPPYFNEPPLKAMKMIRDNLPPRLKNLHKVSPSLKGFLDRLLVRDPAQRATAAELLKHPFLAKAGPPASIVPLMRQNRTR

B1: GST-GEF-H1S (aa763-921): bacterially expressed GST-fusion protein of amino acids 763-921 of GEF-H1S (protein)
chain: LRESEQARALLEREAEEARRQLAALGQTEPLPAEAPWARRPVDPRRRSLPAGDALYLSFNPPQPSRGTDRLDLPVTTRSVHRNFEDRERQELGSPEERLQDSSDPDTGSEEEGSSRLSPPHSPRGETLAETWTRDFTRMQDIPEETESRDGEAVASES
modifications: left off: a dimerising Fc or GST
notes: bacterially expressed GST-fusion protein of amino acids 763-921 of GEF-H1S
phosphorylation by PAK4 in vitro [1]: showed phosphorylation | binding to full-length myc-tagged PAK4 protein and the kinase domain (amino acids 291-591) [2]: able to bind strongly
